# According to US20040151713:
# Residue numbers refer to the chain shown, from its start. Numbers in names are those of the source.
# T1: GST-Cdc25C (C terminal peptide: 195-260aa), P30307
# T1 chain: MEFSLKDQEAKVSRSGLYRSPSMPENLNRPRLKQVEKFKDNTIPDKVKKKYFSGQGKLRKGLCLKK
# T2: GST-Cdc25B (C terminal peptide: 281-381aa), P30305
# T2 chain: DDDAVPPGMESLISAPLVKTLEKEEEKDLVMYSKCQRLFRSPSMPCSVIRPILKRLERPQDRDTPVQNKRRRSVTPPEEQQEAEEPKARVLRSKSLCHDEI
# B1: hCdr2 wild-type (wt) recombinant protein with c-Myc tag (protein)
# chain: MSSGAKEGGGGSPAYHLPHPHPHPPQHAQYVGPYRLEKTLGKGQTGLVKLGVHCITGQKVAIKIVNREKLSESVLMKVEREIAILKLIEHPHVLKLHDVYENKKYLYLVLEHVSGGELFDYLVKKGRLTPKEARKFFRQIVVCAGLCHSYSICHRDLKPENLLLDEKNNIRIADFGMASLQVGDSLLETSCGSPHYACPEVIKGEKYDGRRADMWSCGVILFALLVGALPFDDDNLRQLLEKVKRGVFHMPHFIPPDCQSLLRGMIEVEPEKRLSLEQIQKHPWYLGGKHEPDPCLEPAPGRRVAMRSLPSNGELDPDVLESMASLGCFRDRERLHRELRSEEENQEKMIYYLLLDRKERYPSCEDQDLPPRNDVDPPRKRVDSPMLSRHGKRRPERKSMEVLSITDAGGGGSPVPTRRALEMAQHSQRSRSVSGASTGLSSSPLSSPRSPVFSFSPEPGAGDEARGGGSPTSKTQTLPGPPGSPRSSGGTPLHSPLHTPRASPTGTPGTTPPPSPGGGVGGAAWRSRLNSIRNSFLGSPRFHRRKMQVPTAEEMSSLTPESSPELAKRSWFGNFISLDKEEQIFLVLKDKPLSSIKADIVHAFLSIPSLSHSVLSQTSFRAEYKASGGPSVFQKPVRFQVDISSSEGPEPSPRRDGSGGGGIYSVTFTLISGPSRRFKRVVETIQAQLLSTHDQPSVQALADEKNGAQTRPAGAPPRSLQPPPGRPDPELSSSPRRGPPKDKKLLATNGTPLP
# B2: hCdr2 K59A kinase-dead mutated protein with c-Myc tag (protein)
# chain: B1 chain with K59A
# Assays:
# [1] = target: GST-Cdc25B S309A [GST: P08515]
# [2] = target: GST-fusion recombinant protein containing human Weel (full-length protein), P30291
# GST-fusion recombinant protein containing human Weel (full-length protein), P30291, sequence (P30291 whole entry, looked up, the tested form may be a part): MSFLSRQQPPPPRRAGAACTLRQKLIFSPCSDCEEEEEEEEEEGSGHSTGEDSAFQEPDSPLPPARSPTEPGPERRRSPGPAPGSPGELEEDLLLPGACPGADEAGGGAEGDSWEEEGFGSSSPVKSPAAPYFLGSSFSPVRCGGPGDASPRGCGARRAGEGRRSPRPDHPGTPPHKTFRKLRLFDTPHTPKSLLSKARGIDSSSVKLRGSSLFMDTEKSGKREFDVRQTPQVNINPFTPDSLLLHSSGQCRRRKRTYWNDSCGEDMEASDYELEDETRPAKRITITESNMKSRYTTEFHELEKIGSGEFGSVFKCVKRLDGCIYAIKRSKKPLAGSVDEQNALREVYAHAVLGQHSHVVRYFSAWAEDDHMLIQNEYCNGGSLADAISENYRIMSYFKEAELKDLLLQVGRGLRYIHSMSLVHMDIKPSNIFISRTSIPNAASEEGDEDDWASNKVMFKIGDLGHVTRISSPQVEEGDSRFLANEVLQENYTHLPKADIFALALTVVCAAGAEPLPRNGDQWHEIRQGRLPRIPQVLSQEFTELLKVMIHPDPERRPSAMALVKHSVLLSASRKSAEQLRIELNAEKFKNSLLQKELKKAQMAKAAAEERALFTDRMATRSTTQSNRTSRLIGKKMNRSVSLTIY
# [3] = target: GST-Cdc25C S216A [GST: P08515]
# [4] = target: T1, GST-Cdc25C (C terminal peptide: …)
# [5] = target: T2, GST-Cdc25B (C terminal peptide: …)
protein,measurement,setting,value
B1,in vitro kinase assay (32P autoradiography),[1],"When GST-Cdc25B S309A was used as a substrate, even the hCdr2 wt protein did not provide phosphorylation action"
same,in vitro kinase assay (32P autoradiography),[2],the human Weel could not be phosphorylated
same,in vitro kinase assay (32P autoradiography),[3],"When GST-Cdc25C S216A was used as a substrate, phosphorylation of the hCdr2 wt protein did not occur"
same,in vitro kinase assay (32P autoradiography),[4],the hCdr2 wt protein phosphorylated GST-Cdc25C (C terminal peptide: 195-260aa)
same,in vitro kinase assay (32P autoradiography),[5],the hCdr2 wt protein severely phosphorylated the GST-Cdc25B (C terminal peptide: 282-381aa)
B2,in vitro kinase assay (32P autoradiography),[4],but failed to phosphorylate the hCdr2 K59A protein
same,in vitro kinase assay (32P autoradiography),[5],the weak phosphorylating action exhibited by the mock and hCdr2 K59A
